From US20220002432A1 (VIRTUOSO BINCO, published 2022) come the findings set out here.

First the molecules themselves.
T1: Rhesus-ICAM1 (rhesus, UniProt Q5NKV6 28-480, limits assumed)
T1 sequence (looked up): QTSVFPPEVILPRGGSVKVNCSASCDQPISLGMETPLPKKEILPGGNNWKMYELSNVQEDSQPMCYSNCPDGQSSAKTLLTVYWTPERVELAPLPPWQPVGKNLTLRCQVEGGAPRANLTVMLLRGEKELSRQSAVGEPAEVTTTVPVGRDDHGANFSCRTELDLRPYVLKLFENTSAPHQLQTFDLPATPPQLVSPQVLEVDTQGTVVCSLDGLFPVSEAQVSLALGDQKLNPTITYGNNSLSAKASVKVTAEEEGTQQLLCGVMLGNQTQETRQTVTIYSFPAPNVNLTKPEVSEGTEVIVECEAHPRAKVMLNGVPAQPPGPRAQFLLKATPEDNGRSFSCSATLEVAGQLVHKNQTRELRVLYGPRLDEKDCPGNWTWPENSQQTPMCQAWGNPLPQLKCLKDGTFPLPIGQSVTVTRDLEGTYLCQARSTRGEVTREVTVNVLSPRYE

B1: 5B12 (antibody, human IgG1, kappa, V domains shown)
VH: QSLEESGGRLVTPGTPLTLTCTVSGFSLSSYGMSWVRQAPGKGLEYIGWISFSGSAYYANWAKGRFTISKTSTTVDLKITSPTTEDTATYFCARGGDYGGSTYILNLWGPGTLVTVSS
VL: AFELTQTPSSVEAAVGGTVTIKCQASESIDSYLSWYQQKPGQPPKLLIYAASTLASGVSSRFKGSGSGTEFTLTISDLESADAATYYCQSYSGTITTSGGAFGGGTEVVVKR
notes: Rabbit-human chimeric anti-ICAM1: rabbit VH and VL on human IgG1 and kappa constant regions
B2: 10B8 (antibody, human IgG1, kappa, V domains shown)
VH: B1 VH with T15G, P16S
VL: B1 VL with D30N, T96S
notes: as for B1
B3: 14B3 (antibody, human IgG1, kappa, V domains shown)
VH: QSLEESGGDLVKPGASLTLTCTASGFSSSSGYYICWVRQAPGKGLEWIACIGAGSGAAYYASWAKGRFTMSKTSSTTVTLQMTSLTAADTATYFCARGGFVVGGGYGGYCFNLWGPGTLVTVSS
VL: AQVLTQTASSVSATVGGTVTISCQSSESVDVNNLAWYQQKPGQPPKLLIYSASTLASGVPSRFKGSGSGTQFTLTVSDLESADAATYYCAGGYSGNIFAFGGGTAVVVKR
notes: as for B1
B4: 16E4 (antibody, human IgG1, kappa, V domains shown)
VH: QSVEESGGRLVTPGTPLTLTCTVSGFSLSSHAMGWVRQAPGKGLQYIGIIGSSGSTYYASWAKGRFTISKTSTTVDLRLTSPTTEDTATYFCVRDPYDSFGDAYRLWGPGTLVTVSS
VL: AYDMTQTPASVEVAVGGTVTIKCQASQSIYSYCSWYQQKPGQRPKFLIYDASKLASGVPSRFKGSGSGTEFTLTISGMQSDDAATYYCQQAYSSSNVDNAFGGGTEVVVKR
notes: as for B1
B5: 2E3 (antibody, human IgG1, kappa, V domains shown)
VH: B4 VH with R9G, T12K, T15G, P16T, H31Y, Q45E, R78K, L79I, A103G
VL: B4 VL with Q27E, S28N, S31R, C33L, S34L, P40L, K45S, F46L, M78V
notes: as for B1
B6: 6G8 (antibody, human IgG1, kappa, V domains shown)
VH: QSVEESGGGLVKPGGTLTLTCTVSGFSLSSYAMGWVRQAPGKGLEYIGIIGSSGSTYYATWAKGRFTISKTSTTVDLKITSPTTEDTATYFCVRDPYDSYDAAYRLWGPGTLVTVSS
VL: B4 VL with T5S, C33L, F46L, K63T, M78V, A100V
notes: as for B1
B7: 3D8 (antibody, human IgG1, kappa, V domains shown)
VH: QSLEESGGDLVKPGASLTLTCTASGFSFSSSYWMCWVRQAPGKGLEWIACIDGGSAGYNYYATWAKGRFTISKTSSTTVTLQMTSLTAADRATYFCARGPGSSYNLWGPGTLVTVSS
VL: DIVMTQTPASVEAAVGGTVTIKCQASQSISSYLSWYQQKPGQPPKLLIYRASTLASGVPSRFKGSGSGTEFTLTISDLESADAATYYCQSYVFGSSRSYDNAFGGGTEVVVKR
notes: as for B1
B8: 8E5 (antibody, human IgG1, kappa, V domains shown)
VH: QSLEESGGRLVTPGTPLTLTCTVSGFSLSNYAMNWVRQAPGKGLEWIGYISTRGSAYYASWAKGRFTISKTSTTVDLKMTSPTTEDTATYFCARGDLVGGGYIRGSFDPWGPGTLVTVSS
VL: AQVLTQTPSPVSAAVGGTVTINCQSSQSVVSDKLLSWFQQKPGQPPKLLIYGASTLASGVPSRFKGSGSGTQFTLTISDVQSDDAATYYCAGAYSTDSDIRAFGGGTEVVVKR
notes: as for B1

Residue numbers refer to the chain shown, from its start.

T2 sequence (P05362 28-480 limits assumed): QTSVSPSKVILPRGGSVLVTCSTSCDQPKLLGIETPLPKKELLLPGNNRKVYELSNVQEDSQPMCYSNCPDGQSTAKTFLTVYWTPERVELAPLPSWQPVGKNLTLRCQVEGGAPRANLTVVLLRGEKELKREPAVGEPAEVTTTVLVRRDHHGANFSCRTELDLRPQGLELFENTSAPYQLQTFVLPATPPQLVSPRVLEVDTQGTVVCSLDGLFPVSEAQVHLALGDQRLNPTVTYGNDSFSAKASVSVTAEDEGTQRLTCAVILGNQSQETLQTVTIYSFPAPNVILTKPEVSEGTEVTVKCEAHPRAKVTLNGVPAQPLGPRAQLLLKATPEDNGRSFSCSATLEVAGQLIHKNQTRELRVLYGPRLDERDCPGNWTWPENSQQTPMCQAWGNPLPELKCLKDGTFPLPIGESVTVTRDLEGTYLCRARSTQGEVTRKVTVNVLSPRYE

The first test concerns the target T2, recombinant human ICAM1 (human, UniProt P05362 28-480, limits assumed). The test can be described thus: SPR (Biacore 8K), antibody captured, antigen injected. A general note: SPR reads the build-up and loss of mass on a sensor chip optically.
Method: (§1) The binding kinetics of the anti-CD38 and anti-ICAM1 antibodies were evaluated on a Biacore 8K instrument (GE Healthcare). Biacore Series S CM5 sensor chips were immobilized with monoclonal mouse anti-human IgG (Fc) antibody (human antibody capture kit from GE Healthcare). Antibodies were captured on each flow cell. Serial 3-fold dilutions of each antigen were injected at a flow rate of 30 μl/min. Each sample was analyzed with 1 min association and 10 min dissociation at room temperature (25° C.). After each injection, the chip was regenerated using 3M MgCl₂. A 1:1 Langmuir model of simultaneous fitting of kₒₙ and koff was used for kinetics analysis.
One may read the Kd as a measure of binding affinity in units of concentration. By koff is commonly meant a measure of how fast the partners let go of each other. For orientation: kon means a measure of how fast the partners come together. As for B1, the Kd was found to be 2.74 nM, the off-rate (koff) was 0.000584 s⁻¹ and the kon worked out at 213000 M⁻¹ s⁻¹.

On to B2, for which the Kd was 3.32 nM, the dissociation rate constant (koff) was 0.000682 s⁻¹ and the kon was determined as 206000 M⁻¹ s⁻¹.

Take B3: the Kd came to 2.85 nM, the koff was found to be 0.00027 s⁻¹ and the kon is 94800 M⁻¹ s⁻¹.

On to B4, for which the Kd worked out at 0.57 nM, the koff was 0.000134 s⁻¹ and the kon is 237000 M⁻¹ s⁻¹.

Consider B5, for which the equilibrium dissociation constant (Kd) was found to be 0.65 nM, the koff was 0.000149 s⁻¹ and the kon was 227000 M⁻¹ s⁻¹.

On to B6, for which the Kd was 1.7 nM, the koff stood at 0.000533 s⁻¹ and the kon is 314000 M⁻¹ s⁻¹.

Turning to B7, the Kd came out at 16.8 nM, the off-rate constant (koff) came out at 0.00909 s⁻¹ and the kon worked out at 540000 M⁻¹ s⁻¹.

On to B8, for which the Kd was 24.4 nM, the koff amounted to 0.00361 s⁻¹ and the kon was 148000 M⁻¹ s⁻¹.

The target in a further test is T1, Rhesus-ICAM1. The description is as above.
Method: as §1
With B1, the equilibrium dissociation constant (Kd) amounted to 8.2 nM, the koff was determined as 0.00218 s⁻¹ and the kon amounted to 266000 M⁻¹ s⁻¹.

On to B2, for which the Kd was 8.27 nM, the koff is 0.00245 s⁻¹ and the kon was found to be 296000 M⁻¹ s⁻¹.

As to B3, the Kd is 3.2 nM, the koff was 0.000596 s⁻¹ and the on-rate (kon) worked out at 186000 M⁻¹ s⁻¹.

Turning to B4, the Kd is 0.54 nM, the off-rate constant (koff) amounted to 0.000277 s⁻¹ and the kon stood at 517000 M⁻¹ s⁻¹.

As to B5, the Kd amounted to 1.17 nM, the koff came out at 0.000387 s⁻¹ and the kon stood at 330000 M⁻¹ s⁻¹.

Molecule B6 displayed a Kd of 0.85 nM, a koff of 0.00126 s⁻¹ and an on-rate (kon) of 1.47e+06 M⁻¹ s⁻¹.

Molecule B7 showed a Kd of 17.3 nM, an off-rate constant (koff) of 0.0348 s⁻¹ and an on-rate constant (kon) of 2.01e+06 M⁻¹ s⁻¹.

The molecule B8 returned a Kd of 7.06 nM, a koff of 0.00189 s⁻¹ and a kon of 268000 M⁻¹ s⁻¹.

The target of a further test is T3, ICAM1 on the surface of DU145 cells (human, UniProt P05362 28-532).
T3 construct: whole, on cells
T3 sequence (P05362 28-532): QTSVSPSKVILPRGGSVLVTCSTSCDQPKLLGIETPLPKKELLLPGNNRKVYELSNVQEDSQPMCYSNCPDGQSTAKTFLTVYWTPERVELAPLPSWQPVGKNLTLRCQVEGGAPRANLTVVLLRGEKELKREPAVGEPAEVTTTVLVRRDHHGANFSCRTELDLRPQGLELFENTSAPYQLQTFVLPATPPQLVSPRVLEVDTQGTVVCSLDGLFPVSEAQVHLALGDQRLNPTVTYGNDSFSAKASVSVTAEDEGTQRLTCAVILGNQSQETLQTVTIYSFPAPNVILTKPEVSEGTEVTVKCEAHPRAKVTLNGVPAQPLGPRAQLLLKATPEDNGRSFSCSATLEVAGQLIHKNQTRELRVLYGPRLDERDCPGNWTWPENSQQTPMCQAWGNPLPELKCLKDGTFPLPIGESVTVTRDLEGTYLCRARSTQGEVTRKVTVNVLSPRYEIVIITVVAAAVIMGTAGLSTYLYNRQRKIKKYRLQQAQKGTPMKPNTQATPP
The test is described as follows: flow cytometry, DU145 cells.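 Also: purified antibodies in dilution series bound to cells for 1 h at 4 °C, detected with a fluorescent secondary antibody (1 h, 4 °C, dark), read by flow cytometry.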 On the technique in general: A flow cytometer gives signals particle by particle.
Method: Harvested cells were centrifuged at 2000 rpm for 5 min and resuspended with 10-15 ml ice-cold culture medium. Cells were counted and then 3×10⁶ cells were resuspended per mL of blocking buffer (PBS plus 2% FBS). 100 μl of the cell suspension was dispensed into each well of a 96-well plate and incubated at room temperature for 10-20 min. […] While incubating, purified antibodies were diluted to the desired dilution with blocking buffer. After a 10-20 minutes incubation, cells were centrifuged for 5 min at 2000 rmp in a refrigerated centrifuge. Blocking buffer was aspirated, and cells were resuspended in 100 μl/well diluted antibodies and incubated for 1 hour at 4° C. The cells were then washed 3 times with PBS plus 2% FBS. After the final wash, the cells were resuspended in 100 μl 1:500 diluted secondary antibody (Invitrogen, Cat #: A10631) and incubated for 1 hour at 4° C. in the dark. The cells were then washed 3 times with 200 μl PBS by centrifuging at 2000 rpm for 5 min. After the last wash, the cells were resuspended in 300 μl cold PBS and analyzed on a FACSVerse™ (BD Biosciences) flow cytometer.
The EC50 is the concentration at which the effect is half-maximal. Read a low EC50 as higher potency in that assay. Consider B1, for which a half-maximal effect (EC50) was put at 0.113 nM and the “Max Binding MFI” value was determined as 5940 MFI.

As to B2, the EC50 came out at 0.251 nM and the “Max Binding MFI” value was 6220 MFI.

Consider B3, for which the midpoint of the response, the EC50, lay at 6.01 nM and the “Max Binding MFI” value turned out to be 2940 MFI.

As to B4, the EC50 is 1.45 nM and the “Max Binding MFI” value stood at 3700 MFI.

For the molecule B5, the EC50 came to 1.59 nM and the “Max Binding MFI” value amounted to 3980 MFI.

Turning to B6, the EC50 is 2.23 nM and the “Max Binding MFI” value is 4190 MFI.

B7: the EC50 is 0.208 nM and the “Max Binding MFI” value is 6430 MFI.

In the case of B8, the 50% effective concentration (EC50) came to 0.124 nM and the “Max Binding MFI” value worked out at 9190 MFI.

For another test, the target named is T1, Rhesus-ICAM1. The test is described as follows: ELISA: plate coated with 1 ug/ml recombinant rhesus ICAM1 ECD, serially diluted antibody, OD450. A general note: An ELISA detects its analyte on a solid surface through an enzyme-linked reagent.
Method: (§2) The plate was coated overnight at 4° C. with 1 μg/ml recombinant CD38 or ICAM1. After washing 3 times, the plate was blocked with 300 μl 1% BSA in PBST at 37° C. for 1 hour. Serially diluted antibodies were added and incubated at 37° C. for 1 hour. The plate was then washed 4 times with PBST and incubated with 1:5000 diluted 2nd antibody (Sigma, Cat #A0293) at 37° C. for 1 hour.
In general, EC50 (read off the curve) refers to the concentration giving half of the maximal effect. As for B1, the “EC50 (read off the curve)” value is approximately 0.04 nM.

For B2, the “EC50 (read off the curve)” value is approximately 0.04 nM.

Consider B3, for which the “EC50 (read off the curve)” value was approximately 0.04 nM.

Consider B4, for which the “EC50 (read off the curve)” value is approximately 0.04 nM.

Consider B5, for which the “EC50 (read off the curve)” value is approximately 0.04 nM.

B6: the half-maximal effective concentration (EC50 (read off the curve)) was approximately 0.04 nM.

As to B7, the “EC50 (read off the curve)” value was approximately 0.04 nM.

On to B8, for which the “EC50 (read off the curve)” value is approximately 0.04 nM.

Another test deals with T2, recombinant human ICAM1. The test is described as follows: ELISA: plate coated with 1 ug/ml recombinant human ICAM1 ECD, serially diluted antibody, OD450.
Method: as §2
With B1, the half-maximal effective concentration (EC50 (read off the curve)) is approximately 0.04 nM.

On to B2, for which the “EC50 (read off the curve)” value was approximately 0.04 nM.

Regarding B3, the “EC50 (read off the curve)” value is approximately 0.04 nM.

Take B4: the concentration for a half-maximal effect (EC50 (read off the curve)) was approximately 0.04 nM.

B5: the “EC50 (read off the curve)” value is approximately 0.04 nM.

On to B6, for which the “EC50 (read off the curve)” value is approximately 0.04 nM.

For B7, the “EC50 (read off the curve)” value is approximately 0.04 nM.

As for B8, the “EC50 (read off the curve)” value was approximately 0.04 nM.
